The text below walks through data of publication doi:10.1101/2025.03.24.645063 (2025).

The assay deals with CRBN/DDB1 complex (human | , UniProt Q96SW2 1-442; Q16531 1-1140, CoraFluor-1 label (on the complex, chain not told)). As to the kind of experiment: FRET; TR-FRET competitive displacement of thal-FITC. In general terms: Time-resolved FRET reads energy transfer from a long-lived donor to a nearby acceptor.

B1: UROD with C-terminal cyclic imide (recombinant UROD incubated with PCMT1) (natural protein)
chain: MEANGLGPQGFPELKNDTFLRAAWGEETDYTPVWCMRQAGRYLPEFRETRAAQDFFSTCRSPEACCELTLQPLRRFPLDAAIIFSDILVVPQALGMEVTMVPGKGPSFPEPLREEQDLERLRDPEVVASELGYVFQAITLTRQRLAGRVPLIGFAGAPWTLMTYMVEGGGSSTMAQAKRWLYQRPQASHQLLRILTDALVPYLVGQVVAGAQALQLFESHAGHLGPQLFNKFALPYIRDVAKQVKARLREAGLAPVPMIIFAKDGHFALEELAQAGYEVVGLDWTVAPKKARECVGKTVTLQGNLDPCALYASEEEIGQLVKQMLDDFGPHRYIANLGHGLYPDMDPEHVGAFVDAVHKHSRLLRQN
modifications: C-terminal cyclic imide on the C-terminal asparagine (N367), confirmed by mass spectrometry
In turn, B1 registered a Kd of 1500 nM.

As a reminder, the Kd is the equilibrium constant for the complex coming apart. High values mean a looser complex, low ones a tighter complex.
